The subject of one series is Bgl II-cut pPK5. The series can be described thus: Run-off transcription with 2′-OMe- or 2′-azido-NTPs on Bgl II-cut pPK5. It is filed as biochemical. As for the experimental part:
RNAPs were prepared as described (Brieba, L G, and Sousa, R. Biochemistry, 39: 919-923, 2000). Transcription reactions were carried out for 30 min. at room temperature in 40 mM Tris-Cl, pH 8.0, 6 mM MgCl2, 10 mM NaCl, 2 mM spermidine, with templates at 10^−7 M and RNAPs at 2×10^−7 M. All NTPs were used at 0.5 mM, and transcripts were labeled by inclusion of 1% v/v 800 Ci/mM […] in the reaction. Modified NTPs were from Trilink Biotechnologies. Reactions were stopped by addition of an equal volume of 90% formamide, 50 mM EDTA, 0.01% xylene cyanol, resolved by electrophoresis in 20% acrylamide, 1% bis-acrylamide, 1×TBE gels, and visualized on a Molecular Dynamics Phosphorimager.
The ability of the wild-type, Y639F and Y639F/H784A mutants to utilize 2′-OMe-UTP and 2′-OMe-CTP, and 2′-azido-UTP and 2′-azido-CTP in RNA synthesis was tested. On a Bgl II-cut pPK5 (Mentesanas, P. E., et al., “Characterization of Bacteriophage T7 RNA Polymerase Elongation Complexes,” J. Mol. Biol. 302:1049-1062, 2000) template in which CTP and UTP are first incorporated at +14 and +15, respectively, the wild-type enzyme can synthesize 34 nucleotide (nt) run-off transcripts in reactions in which UTP is replaced with 2′-OMe-UTP (FIG. 2a, lane 2) or in reactions in which CTP is replaced with 2′-OMe-CTP (FIG. 2a, lane 3). Relative to the reaction with 4 NTPs (FIG. 2a, lane 1), yields of run-off transcripts are reduced 6-fold and 21-fold in the 2′-OMe-UTP and 2′-OMe-CTP reactions, respectively. When both UTP and CTP are replaced with the corresponding 2′-OMe-NTPs, run-off transcription with the wild-type enzyme is undetectable (FIG. 2a, lane 4). Terminated transcripts are seen in these reactions at positions where 2′-OMe-UMP or 2′-OMe-CMP are incorporated (FIG. 2a, lanes 2-4). The Y639F mutation enhances utilization of the 2′-OMe-NTPs: relative to reactions with 4 NTPs (FIG. 2a, lane 5) runoff transcription with Y639F is reduced, respectively: 2-fold, 8-fold, and 55-fold in reactions with 2′-OMe-UTP, 2′-OMe-CTP, or both (FIG. 2a, lanes 6-8). With the Y639F/H784A double mutant the reduction in run-off transcript synthesis is <15% in reactions with 2′-OMe-UTP (FIG. 2a, lane 10), and only 3-fold and 6-fold in reactions with, respectively, 2′-OMe-CTP or both 2′-OMe-UTP and 2′-OMe-CTP (FIG. 2a, lanes 11, 12).
Identical experiments were carried out with 2′-azido-UTP or 2′-azido-CTP replacing UTP or CTP, respectively (FIG. 2b). With the wild-type enzyme, run-off transcription was reduced 15- and 50-fold in reactions with 2′-azido-UTP or 2′-azido-CTP, respectively (FIG. 2b; lanes 2, 3), and was undetectable in reactions with both 2′-azido-UTP and 2′-azido-CTP (FIG. 2b; lane 4). With Y639F, use of 2′-azido-UTP or 2′-azido-CTP reduced run-off transcription by 70% (FIG. 2b; lanes 6, 7) compared to reactions with 4 NTPs (FIG. 2b; lane 5), while use of both 2′-azido-UTP and 2′-azido-CTP reduced runoff transcription by 11-fold (FIG. 2b, lane 8). With Y639F/H784A use of a single azido-modified NTP reduced run-off transcription by only 40% (FIG. 2b; lanes 10, 11), while use of two 2′-azido-NTPs reduced it by 3-fold (FIG. 2b; lane 12).

Another series has as its system supercoiled pT75. The series can be described thus: Kinetic constants (Km, kcat) with rNTPs or dNTPs. It counts as biochemical. The source says: 1. One first determines the Km and the kcat for each enzyme (mutant and wild-type) using the non-canonical nucleotide as a substrate and using the canonical nucleotide as a substrate, as was described previously (Patra, et al., 1992). The value “Km” expresses how readily the enzyme will bind the substrate (a larger Km implies weaker binding) and “kcat” expresses the rapidity with which the substrate, once bound by the enzyme, is reacted upon.
2. One next calculates the numerical value for kcat/Km for each enzyme and for each substrate. By broad scientific consensus, the specificity of an enzyme for a substrate is felt to be most suitably expressed by this ratio.
3. For each enzyme, one then calculates the numerical value obtained by using the value of kcat/Km for the canonical substrate in the numerator and kcat/Km for the non-canonical substrate in the denominator. This number indicates how much a given enzyme discriminates between the two substrates. […] If this value is greater than 1, then the enzyme discriminates by that factor between the two substrates; for example, if the value is 100, then the enzyme discriminates by a factor of 100 in favor of the canonical substrate compared to the non-canonical substrate. Similarly, a value less than 1 means that the enzyme discriminates in favor of the non-canonical substrate over the canonical substrate.
4. Finally, one compares the numerical value calculated in step 3 above for the wild-type (W.T.) enzyme with the value calculated in step 3 for the mutant enzyme. If the value calculated for the mutant enzyme is less than the value calculated for the wild-type enzyme, then the mutant enzyme “has a reduced discrimination for the non-canonical substrate compared to the wild-type enzyme.” For example, if the values calculated in step 3 are 100 for the wild-type enzyme and 10 for the mutant enzyme, then the discrimination of the mutant enzyme in favor of the canonical substrate (or against the non-canonical substrate) is reduced 10-fold compared to the discrimination of the wild-type enzyme.
Determination of NTP Km and kcat was as described previously (Patra, et al., 1992).
The increased utilization of dNTPs by Y639F is due to both a decreased Km and an increased kcat for dNTPs: The Km and kcat of the W.T. and Y639F polymerases with rATP, rITP and 5 different dNTPs were measured (see, Table VI).

Setting [1] is: both 2′-azido-UTP and 2′-azido-CTP.
[2] abbreviates: rATP, ranges from 3 experiments.

By Km is commonly meant the concentration of substrate that gives half-maximal velocity. On to “W.T.: wild-type T7 RNA polymerase [reference compound]”, for which the “Reduction of run-off transcript yield relative to 4 NTPs” value with Bgl II-cut pPK5 (2′-OMe-CTP replacing CTP) is on record as 21 fold; in the series on Bgl II-cut pPK5 (2′-OMe-UTP replacing UTP) it was 6 fold; in the series with Bgl II-cut pPK5 (both 2′-OMe-UTP and 2′-OMe-CTP), “undetectable”. In addition, the results for the “Reduction of run-off transcription” value in the series with Bgl II-cut pPK5 (2′-azido-CTP replacing CTP), with Bgl II-cut pPK5 (2′-azido-UTP replacing UTP) and in the series on Bgl II-cut pPK5 (setting [1]) were 50 fold, 15 fold and “undetectable”, respectively. Moreover, the “Discrimination rNTPs vs. dNTPs: average kcat/Km of four rNTPs over average kcat/Km of four dNTPs” value in the series on supercoiled pT75 is “about 120 fold”. For the same substance, the Kcat was 26 to 29 s⁻¹ in the series on supercoiled pT75 (DTTP); 6 to 9 s⁻¹ with supercoiled pT75 (dATP); 9 to 14 s⁻¹ in the series on supercoiled pT75 (dCTP); 5 to 9 s⁻¹ in the series with supercoiled pT75 (dGTP); 25 to 39 s⁻¹ in the series with supercoiled pT75 (dUTP); 190 to 220 s⁻¹ in the series with supercoiled pT75 (rATP). The Kcat in the series with supercoiled pT75 (rITP) lay within 170 to 230 s⁻¹. The Km was in the range of 209 to 262 µM in the series with supercoiled pT75 (DTTP); 2000 to 5000 µM with supercoiled pT75 (dATP); 4300 to 13500 µM in the series on supercoiled pT75 (dCTP); 602 to 701 µM with supercoiled pT75 (dGTP); 4400 to 9000 µM in the series with supercoiled pT75 (dUTP); 34 to 68 µM in the series on supercoiled pT75 (setting [2]). Besides, in the series on supercoiled pT75 (rITP), the Km fell in the range of 29 to 59 µM.

With “Y639F: T7 RNAP with wild-type tyrosine at position 639 substituted by phenylalanine”, the “Reduction of run-off transcript yield relative to 4 NTPs” value is 8 fold in the series on Bgl II-cut pPK5 (2′-OMe-CTP replacing CTP); 2 fold in the series on Bgl II-cut pPK5 (2′-OMe-UTP replacing UTP); 55 fold in the series on Bgl II-cut pPK5 (both 2′-OMe-UTP and 2′-OMe-CTP). Moreover, the “Reduction of run-off transcription” value stood at 11 fold in the series with Bgl II-cut pPK5 (setting [1]) and 70% in the series with Bgl II-cut pPK5 (single azido-modified NTP (2′-azido-UTP or 2′-azido-CTP)). Moreover, the “Discrimination rNTPs vs. dNTPs: average kcat/Km of four rNTPs over average kcat/Km of four dNTPs” value in the series with supercoiled pT75 is given as “about 6 fold”. In the series on supercoiled pT75, the “kcat with dNTPs less than for rNTPs” value is on record as 2-4 fold. For the same substance, the Kcat lay in the range of 70 to 110 s⁻¹ in the series with supercoiled pT75 (DTTP); 50 to 70 s⁻¹ with supercoiled pT75 (dATP); 50 to 90 s⁻¹ in the series on supercoiled pT75 (dCTP); 30 to 50 s⁻¹ in the series with supercoiled pT75 (dGTP); 70 to 130 s⁻¹ in the series with supercoiled pT75 (dUTP); 150 to 210 s⁻¹ in the series on supercoiled pT75 (rATP). Also, the Kcat with supercoiled pT75 (rITP) is 180 to 200 s⁻¹. In addition, the Km is 38 to 59 µM in the series with supercoiled pT75 (DTTP); 200 to 350 µM in the series on supercoiled pT75 (dATP); 920 to 1600 µM with supercoiled pT75 (dCTP); 185 to 264 µM in the series on supercoiled pT75 (dGTP); 52 to 92 µM with supercoiled pT75 (dUTP); 53 to 125 µM in the series on supercoiled pT75 (setting [2]). Besides, the Km in the series on supercoiled pT75 (rITP) is 34 to 94 µM. For the same substance, the “Reduced discrimination between dNTPs and rNTPs compared to wild-type” value in the series with supercoiled pT75 (from average kcat/Km values) was around 20 fold.
